The target in one assay is T1, recombinant human BTLA (human, UniProt Q7Z6A9 31-157, limits assumed).
T1 construct: ELISA antigen; construct not described
T1 sequence (looked up): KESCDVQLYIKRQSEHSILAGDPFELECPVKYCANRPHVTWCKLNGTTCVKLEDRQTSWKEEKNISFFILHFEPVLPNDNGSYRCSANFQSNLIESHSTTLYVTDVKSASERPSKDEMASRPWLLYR
Briefly: ELISA on recombinant human BTLA.

Assay [1] addresses T2, human BTLA (B- and T-lymphocyte attenuator) on cells (human, UniProt Q7Z6A9 31-289). Briefly: cell-based or functional assay.
The target of assay [2] is T2, human BTLA (B- and T-lymphocyte …). Briefly: FACS competition on HEK293T.hBTLA cells; competitor hrHVEM-His-DL650. As to the method:
In FIG. 12A, recombinant HVEM soluble protein was conjugated with DyLight 650 (DL650) fluorophore. HEK293 cells overexpressing hBTLA (HEK293.BTLA) were preincubated with increasing concentrations of selected HFB6-3 humanized variants with cysteine mutants or parental HFB6-3 at 4° C. for 30 minutes and then with DL650-conjugated HVEM for additional 30 minutes. After washing, soluble HVEM remaining associated with BTLA on HEK293.BTLA cells was measured by FACS.

For assay [3] the target is unchanged. Briefly: FACS on HEK293T.hBTLA cells, AF647 anti-human IgG Fc detection. As to the method:
(§1) In FIGS. 11A and 11B, HEK293 overexpressing human BTLA (FIG. 11A) and Expi293 cells overexpressing cynomolgus BTLA (FIG. 11B) were incubated with different concentrations of selected HFB6-3 humanized variants with cysteine mutations. Anti-BTLA antibodies binding to target cells were quantified with an AF647-conjugated anti-human IgG Fc 2nd antibody by FACS. HFB6-3hz24-hG4P-C109A, HFB6-3hz25-hG4P-C109A, HFB6-3hz24-hG4P-C109S and HFB6-3hz25-hG4P-C109S bound to human BTLA and cyno BTLA with single digit nM and sub-nM EC₅₀, similar as parental HFB6-3 (FIGS. 11A and 11B and Table 13).

Assay [4] shares this target. Briefly: cell-based or functional assay. This is another data set of the same source.
Another assay concerns the target T3, cynomolgus BTLA on cells (cynomolgus, UniProt A0A2K5W7M7 31-289).
T3 construct: whole, on cells; Overexpressed on Expi293 cells; also called cyno BTLA; CynoBTLA
T3 sequence: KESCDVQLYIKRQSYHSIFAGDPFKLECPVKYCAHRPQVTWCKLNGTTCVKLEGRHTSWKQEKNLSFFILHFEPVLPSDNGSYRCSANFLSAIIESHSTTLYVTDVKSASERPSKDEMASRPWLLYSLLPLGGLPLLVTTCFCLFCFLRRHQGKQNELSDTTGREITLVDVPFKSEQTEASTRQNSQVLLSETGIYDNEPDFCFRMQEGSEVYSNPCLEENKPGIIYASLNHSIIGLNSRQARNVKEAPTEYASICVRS
Briefly: FACS on Expi293.cynoBTLA cells, AF647 anti-human IgG Fc detection. On the procedure: as §1

B1: HFB6-2hz19-hG4P (antibody, V domains shown)
VH: EVQLLESGGGLVQPGGSLRLSCAASGVNIKDTYMYWVRQAPGKGLEWIGRIDPANGYTRYADSVKGRFTISADNSKNTLYLQMNSLRAEDTAVYYCAVNDGYFEYFDVWGQGTTVTVSS
VL: DIVMTQSPDSLAVSLGERATINCKSSQSLLDSDGKPYLNWLQQKPGQSPKRLIYLVSKLDSGVPDRFSGSGSGTDFTLTISSVQAEDVAVYYCWQDTHFPRTFGQGTKLEIK
notes: Humanized variant of HFB6-2
In the case of B1, the EC50 in the assay with recombinant human BTLA turned out to be 2.55 nM. In addition, the “Reporter EC50” value in assay [1] stood at 22.1 nM.

B2: HFB6-2hz20-hG4P (antibody, V domains shown)
VH: QVQLQESGPGLVKPSGTLSLTCAASGVNIKDTYMYWVRQPPGKGLEWIGRIDPANGYTRYNPSFKSRATVSADKSKNQASLKLSSLTAADTAVYYCAVNDGYFEYFDVWGQGTTVTVSS
VL: DIVMTQSPDSLAVSLGERATINCKSSQSLLDSDGKPYLNWLQQKPGQSPKRLIYLVSKLDSGVPDRFSGSGSGTDFTLTISSVQAEDVAVYYCWQDTHFPRTFGQGTKLEIK
notes: Humanized variant of HFB6-2
For the molecule B2, the EC50 in the assay with recombinant human BTLA stood at 2.51 nM. In assay [1], the “Reporter EC50” value turned out to be 9.77 nM.

B3: HFB6-3hz24-hG4P-C109A (antibody, V domains shown)
VH: QVQLQESGPGLVKPSGTLSLTCADSGFNIKDTYIHWVRQPPGKGLEWIGRIDPANGFTRYNPSLKSRVTISSDKSKNQASLKLSSVTAADTAVYYCAREDGYPYYTLDAWGQGTTVTVSS
VL: DIVMTQSPDSLALSLGERATINCKSSQSLLDVDGKTYLNWFQQKPGQPPKRLIYLVSKLDSGVPDRFSGSGSGTDFTLTISSVQAEDVAVYYCWQGTHFPRTFGQGTKLEIK
notes: Humanized variant of HFB6-3
In turn, B3 returned an IC50 in assay [2] of 2.64 nM. The figures for the EC50 (in assay [3]; with cynomolgus BTLA on cells) were 3.27 nM and 6.89 nM, respectively. The “CHO.TCRa.hHVEM/Jurkat.hBTLA.NFAT-luc (EC50 (nM))” value in assay [4] is 13 nM.

B4: HFB6-3hz24-hG4P-C109S (antibody, V domains shown)
VH: QVQLQESGPGLVKPSGTLSLTCADSGFNIKDTYIHWVRQPPGKGLEWIGRIDPANGFTRYNPSLKSRVTISSDKSKNQASLKLSSVTAADTAVYYCAREDGYPYYTLDSWGQGTTVTVSS
VL: DIVMTQSPDSLALSLGERATINCKSSQSLLDVDGKTYLNWFQQKPGQPPKRLIYLVSKLDSGVPDRFSGSGSGTDFTLTISSVQAEDVAVYYCWQGTHFPRTFGQGTKLEIK
notes: Humanized variant of HFB6-3
On to B4, for which, in assay [2], the 50% inhibitory concentration (IC50) was determined as 3.22 nM. For the same molecule, the values for the EC50 (in assay [3]; with cynomolgus BTLA on cells) were 3.6 nM and 7.83 nM, respectively. The “CHO.TCRa.hHVEM/Jurkat.hBTLA.NFAT-luc (EC50 (nM))” value in assay [4] came to 16.6 nM.

B5: HFB6-3hz20-hG4P (antibody, V domains shown)
VH: QVQLQESGPGLVKPSGTLSLTCADSGFNIKDTYIHWVRQPPGKGLEWIGRIDPANGFTRYNPSFKSRATISSDKSKNQASLKLSSVTAADTAVYYCAREDGYPYYTLDCWGQGTTVTVSS
VL: DIVMTQSPDSLALSLGERATINCKSSQSLLDVDGKTYLNWFQQKPGQPPKRLIYLVSKLDSGVPDRFSGSGSGTDFTLTISSVQAEDVAVYYCWQGTHFPRTFGQGTKLEIK
notes: Humanized variant of HFB6-3
With B5, the IC50 in assay [2] is 2.91 nM. In addition, the EC50 was found to be 3.84 nM in assay [3] and 7.38 nM with cynomolgus BTLA on cells.

B6: HFB6-2hz9-hG4P (antibody, V domains shown)
VH: QVQLVQSGAEVKKPGASVKVSCKASGVNIKDTYMYWVRQAPGQGLEWIGRIDPANGYTRYAQKFQGRATVTADTSTSTVYLELSSLRSEDTAVYYCAVNDGYFEYFDVWGQGTTVTVSS
VL: EIVLTQSPGTLSLSPGERATLSCRSSQSLLDSDGKPYLNWLQQKPGQAPRRLIYLVSKLDSGIPDRFSGSGSGTDFTLTISRLEPEDLAVYYCWQDTHFPRTFGQGTKLEIK
notes: Humanized variant of HFB6-2
With B6, the EC50 with recombinant human BTLA turned out to be 3.29 nM. The “Reporter EC50” value in assay [1] came to 36.7 nM.

B7: HFB6-2hz16-hG4P (antibody, V domains shown)
VH: QVQLVQSGAEVKKPGASVKVSCKASGVNIKDTYMYWVRQAPGQGLEWIGRIDPANGYTRYAQKFQGRATVTADTSTSTVYLELSSLRSEDTAVYYCAVNDGYFEYFDVWGQGTTVTVSS
VL: DIVMTQSPDSLAVSLGERATINCKSSQSLLDSDGKPYLNWLQQKPGQSPKRLIYLVSKLDSGVPDRFSGSGSGTDFTLTISSVQAEDVAVYYCWQDTHFPRTFGQGTKLEIK
notes: Humanized variant of HFB6-2
Regarding B7, the EC50 in the assay with recombinant human BTLA worked out at 2.39 nM. In addition, the “Reporter EC50” value in assay [1] was determined as 10.8 nM.

B8: HFB6-2hz12-hG4P (antibody, V domains shown)
VH: EVQLLESGGGLVQPGGSLRLSCAASGVNIKDTYMYWVRQAPGKGLEWIGRIDPANGYTRYADSVKGRFTISADNSKNTLYLQMNSLRAEDTAVYYCAVNDGYFEYFDVWGQGTTVTVSS
VL: EIVLTQSPGTLSLSPGERATLSCRSSQSLLDSDGKPYLNWLQQKPGQAPRRLIYLVSKLDSGIPDRFSGSGSGTDFTLTISRLEPEDLAVYYCWQDTHFPRTFGQGTKLEIK
notes: Humanized variant of HFB6-2
Regarding B8, in the assay with recombinant human BTLA, the EC50 worked out at 5.05 nM. In addition, in assay [1], the “Reporter EC50” value came to 43.2 nM.

B9: HFB6-2hz17-hG4P (antibody, V domains shown)
VH: QVQLVQSGAEVKKPGSSVKVSCKASGVNIKDTYMYWVRQAPGQGLEWIGRIDPANGYARYAQKFQGRATITADESTSTAYLELSSLRSEDTAVYYCAVNDGYFEYFDVWGQGTTVTVSS
VL: DIVMTQSPDSLAVSLGERATINCKSSQSLLDSDGKPYLNWLQQKPGQSPKRLIYLVSKLDSGVPDRFSGSGSGTDFTLTISSVQAEDVAVYYCWQDTHFPRTFGQGTKLEIK
notes: Humanized variant of HFB6-2
Turning to B9, the EC50 in the assay with recombinant human BTLA worked out at 2.4 nM. The “Reporter EC50” value in assay [1] amounted to 18.2 nM.

B10: HFB6-2hz18-hG4P (antibody, V domains shown)
VH: QVQLVQSGAEVKKPGSSVKVSCKASGVNIKDTYMYWVRQAPGQGLEWIGRIDPANGYARYAQKFQGRATVTADKSTSTAYLELSSLRSEDTAVYYCAVNDGYFEYFDVWGQGTTVTVSS
VL: DIVMTQSPDSLAVSLGERATINCKSSQSLLDSDGKPYLNWLQQKPGQSPKRLIYLVSKLDSGVPDRFSGSGSGTDFTLTISSVQAEDVAVYYCWQDTHFPRTFGQGTKLEIK
notes: Humanized variant of HFB6-2
On to B10, for which the EC50 with recombinant human BTLA turned out to be 2.24 nM. Besides, the “Reporter EC50” value in assay [1] is 10.8 nM.

B11: HFB6-2hz11-hG4P (antibody, V domains shown)
VH: QVQLVQSGAEVKKPGSSVKVSCKASGVNIKDTYMYWVRQAPGQGLEWIGRIDPANGYARYAQKFQGRATVTADKSTSTAYLELSSLRSEDTAVYYCAVNDGYFEYFDVWGQGTTVTVSS
VL: EIVLTQSPGTLSLSPGERATLSCRSSQSLLDSDGKPYLNWLQQKPGQAPRRLIYLVSKLDSGIPDRFSGSGSGTDFTLTISRLEPEDLAVYYCWQDTHFPRTFGQGTKLEIK
notes: Humanized variant of HFB6-2
In the case of B11, in the assay with recombinant human BTLA, the EC50 turned out to be 3.66 nM. The “Reporter EC50” value in assay [1] turned out to be 19.4 nM.

B12: HFB6-2hz0-hG4P (antibody, V domains shown)
VH: QVQLVQSGAEVKKPGSSVKVSCKASGVNIKDTYMYWVRQAPGQGLEWIGRIDPANGYARYAQKFQGRATITADESTSTAYLELSSLRSEDTAVYYCAVNDGYFEYFDVWGQGTTVTVSS
VL: EIVLTQSPGTLSLSPGERATLSCRSSQSLLDSDGKPYLNWLQQKPGQAPRRLIYLVSKLDSGIPDRFSGSGSGTDFTLTISRLEPEDLAVYYCWQDTHFPRTFGQGTKLEIK
For the molecule B12, the concentration giving a half-maximal response (EC50) with recombinant human BTLA amounted to 3.21 nM. In assay [1], the “Reporter EC50” value is 47 nM.

B13: HFB6-2hz8-hG4P (antibody, V domains shown)
VH: QVQLVQSGAEVKKPGASVKVSCKASGVNIKDTYMYWVRQAPGQGLEWIGRIDPANGYTRYAQKFQGRVTMTADTSTSTVYMELSSLRSEDTAVYYCAVNDGYFEYFDVWGQGTTVTVSS
VL: EIVLTQSPGTLSLSPGERATLSCRSSQSLLDSDGKPYLNWLQQKPGQAPRRLIYLVSKLDSGIPDRFSGSGSGTDFTLTISRLEPEDLAVYYCWQDTHFPRTFGQGTKLEIK
notes: Humanized variant of HFB6-2
As to B13, the EC50 in the assay with recombinant human BTLA turned out to be 3.96 nM. Besides, the “Reporter EC50” value in assay [1] was determined as 66.8 nM.

B14: HFB6-2hz15-hG4P (antibody, V domains shown)
VH: QVQLVQSGAEVKKPGASVKVSCKASGVNIKDTYMYWVRQAPGQGLEWIGRIDPANGYTRYAQKFQGRVTMTADTSTSTVYMELSSLRSEDTAVYYCAVNDGYFEYFDVWGQGTTVTVSS
VL: DIVMTQSPDSLAVSLGERATINCKSSQSLLDSDGKPYLNWLQQKPGQSPKRLIYLVSKLDSGVPDRFSGSGSGTDFTLTISSVQAEDVAVYYCWQDTHFPRTFGQGTKLEIK
notes: Humanized variant of HFB6-2
B14: the EC50 in the assay with recombinant human BTLA stood at 2.74 nM. The “Reporter EC50” value in assay [1] worked out at 19.6 nM.
